Data: the supplement of paper PMC7877785
± gives the uncertainty stated by the source.

Assay: self-splicing fitness, log relative to wild type (ln ratio); higher = more splicing; Tetrahymena group I intron in knt gene, E. coli kanamycin selection, DiMSum; sequences stand for … in CUCUCU…GGAGGGAAAAGUUAUCAGGCAUGCACCUGGUAGCUAGUCUUUAAACCAAUAGAUUGCAUCGGUUUAAAAGGCAAGACCGUCAAAUUGCGGGAAAGGGGUCAACAGCCGUUCAGUACCAAGUCUCAGGGGAAACUUUGAGAUGGCCUUGCAAAGGGUAUGGUAAUAAGCUGACGGACAUGGUCCUAACCACGCAGCCAAGUCCUAAGUCAACAGAUCUUCUGUUGAUAUGGAUGCAGUUCACAGACUAAAUGUCGGUCGGGGAAGAUGUAUUCUUCUCAUAAGAUAUAGUCGGACCUCUCCUUAAUGGGAGCUAGCGGAUGAAGUGAUGCAACACUGGAGCCGCUGGGAACUAAUUUGUAUGCGAAAGUAUAUUGAUUAGUUUUGGAGUACUCGUGGUCG
Method in brief: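 Colonies from six replicate transformations of E. coli BL21(DE3) were pooled and amplicon-sequenced on an Illumina HiSeq 2500. The library placed an intron with all eight P1ex-region nucleotides randomised inside the knt kanamycin-resistance gene on pET-22b(+), and cells grew overnight at 37°C or 30°C on LB agar with or without 25 μg/mL kanamycin (plus 100 μg/mL carbenicillin, 50 μM IPTG, 0.2% rhamnose). Fitness is the DiMSum error-weighted combination of wild-type-normalised replicate fold changes, kanamycin versus none.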

Sequence | self-splicing fitness (ln) (30 °C) | self-splicing fitness (ln) (37 °C)
AAAUAGCAAUAUUACGGUAG | -3.63 ± 0.22 | -2.62 ± 0.23
AAAUAGCAAUAUUACGGUUA | -0.483 ± 0.077 | -0.546 ± 0.08
AAAUAGCAAUAUUACGUAGA | -3.32 ± 0.17 | -0.484 ± 0.1
AAAUAGCAAUAUUACGUCUG | -1.3 ± 0.068 | -0.843 ± 0.088
AAAUAGCAAUAUUACGUGAG | -1.19 ± 0.078 | -0.609 ± 0.11
AACAAGCAAUAUUACGACUG | -0.961 ± 0.099 | -0.786 ± 0.11
AACAAGCAAUAUUACGACUU | -0.0432 ± 0.046 | 0.207 ± 0.064
AACAAGCAAUAUUACGAGCA | -1.22 ± 0.099 | -0.153 ± 0.11
AACAAGCAAUAUUACGAGGU | -4.04 ± 0.21 | -3.54 ± 0.17
AACAAGCAAUAUUACGAGUA | -1.5 ± 0.078 | -0.465 ± 0.08
AACAAGCAAUAUUACGCAAA | -2.08 ± 0.17 | 0.267 ± 0.13
AACAAGCAAUAUUACGCAGA | -2.2 ± 0.11 | -0.924 ± 0.095
AACAAGCAAUAUUACGCAUA | -1.8 ± 0.12 | -1.04 ± 0.13
AACAAGCAAUAUUACGCCGC | -3.05 ± 0.31 | -1.94 ± 0.36
AACAAGCAAUAUUACGCCUC | -1.75 ± 0.14 | -0.437 ± 0.15
AACAAGCAAUAUUACGCGCG | -0.623 ± 0.093 | 0.651 ± 0.11
AACAAGCAAUAUUACGCUAA | -2.12 ± 0.11 | -0.523 ± 0.091
AACAAGCAAUAUUACGGCAG | -1.53 ± 0.11 | -1.4 ± 0.13
AACAAGCAAUAUUACGGCAU | -0.11 ± 0.057 | -0.0731 ± 0.073
AACAAGCAAUAUUACGGGAC | -2.86 ± 0.12 | -1.17 ± 0.12
AACAAGCAAUAUUACGGGGC |  | -2.18 ± 0.23
AACAAGCAAUAUUACGUAAA | -2.36 ± 0.09 | -1.17 ± 0.098
AACAAGCAAUAUUACGUAGC | -3.1 ± 0.09 | -2.07 ± 0.1
AACAAGCAAUAUUACGUCCC | -0.608 ± 0.12 | -0.718 ± 0.17
AACAAGCAAUAUUACGUUCG | -2.86 ± 0.1 | -1.76 ± 0.13

Sequence | self-splicing fitness (ln) (30 °C) | self-splicing fitness (ln) (37 °C)
AACAAGCAAUAUUACGUUUC | -4.46 ± 0.22 | -2.95 ± 0.15
AACCAGCAAUAUUACGAACA | -0.809 ± 0.07 | 0.214 ± 0.07
AACCAGCAAUAUUACGAAGG | -3.19 ± 0.23 | -1.8 ± 0.22
AACCAGCAAUAUUACGACCG | -0.744 ± 0.087 | -0.237 ± 0.14
AACCAGCAAUAUUACGAGCG | -1.14 ± 0.072 | -0.281 ± 0.084
AACCAGCAAUAUUACGCAAC | -2.78 ± 0.13 | -0.698 ± 0.11
AACCAGCAAUAUUACGCAAU | -1.86 ± 0.081 | -0.25 ± 0.098
AACCAGCAAUAUUACGCAUU | -1.58 ± 0.068 | 0.096 ± 0.086
AACCAGCAAUAUUACGCCAC | -3.16 ± 0.19 | -2.97 ± 0.4
AACCAGCAAUAUUACGCGAC | -2.27 ± 0.14 | -1.2 ± 0.12
AACCAGCAAUAUUACGCUAG | -2.62 ± 0.082 | -0.715 ± 0.08
AACCAGCAAUAUUACGCUCU | -0.0812 ± 0.054 | 0.0106 ± 0.07
AACCAGCAAUAUUACGCUGG | -2.8 ± 0.14 | -2.25 ± 0.19
AACCAGCAAUAUUACGCUUC | -4.25 ± 0.16 | -2.3 ± 0.11
AACCAGCAAUAUUACGGAGG | -1.36 ± 0.076 | -0.444 ± 0.12
AACCAGCAAUAUUACGGAUU | -2.07 ± 0.071 | -1.08 ± 0.087
AACCAGCAAUAUUACGGCUG | -3.63 ± 0.14 | -3.05 ± 0.16
AACCAGCAAUAUUACGGGCA | -0.402 ± 0.041 | 0.117 ± 0.053
AACCAGCAAUAUUACGGUAG | -1.99 ± 0.058 | -1.02 ± 0.066
AACCAGCAAUAUUACGUACC | -0.685 ± 0.08 | 0.0338 ± 0.11
AACCAGCAAUAUUACGUAGG | -2.67 ± 0.089 | -1.79 ± 0.099
AACCAGCAAUAUUACGUAUA | -1.4 ± 0.072 | -0.853 ± 0.088
AACCAGCAAUAUUACGUCCC | -0.726 ± 0.13 | 0.292 ± 0.18
AACCAGCAAUAUUACGUCUU | 0.0745 ± 0.044 | 0.393 ± 0.063
AACCAGCAAUAUUACGUGGA | -2.33 ± 0.093 | -1.13 ± 0.08

Sequence | self-splicing fitness (ln) (30 °C) | self-splicing fitness (ln) (37 °C)
AACCAGCAAUAUUACGUGGC | -3.06 ± 0.12 | -2.99 ± 0.17
AACCAGCAAUAUUACGUGUA | -0.891 ± 0.041 | -0.409 ± 0.049
AACCAGCAAUAUUACGUUCC | -2.94 ± 0.17 | -0.871 ± 0.14
AACGAGCAAUAUUACGAAAG | -2.83 ± 0.48 | -1.43 ± 0.32
AACGAGCAAUAUUACGAAGG |  | -2.3 ± 0.2
AACGAGCAAUAUUACGAAUC | -3.96 ± 0.26 | -2.5 ± 0.41
AACGAGCAAUAUUACGACAC |  | -1.46 ± 0.32
AACGAGCAAUAUUACGAGUA | -3.14 ± 0.17 | -2.12 ± 0.14
AACGAGCAAUAUUACGCACG | -2.8 ± 0.38 | -0.837 ± 0.25
AACGAGCAAUAUUACGCAUA | -2.86 ± 0.38 | -1.26 ± 0.35
AACGAGCAAUAUUACGCAUU | -1.24 ± 0.12 | -2.9 ± 0.24
AACGAGCAAUAUUACGCGCA | -1.28 ± 0.094 | -2.1 ± 0.12
AACGAGCAAUAUUACGCGUA | -2.19 ± 0.19 | -1.72 ± 0.18
AACGAGCAAUAUUACGCUGU | -2.67 ± 0.45 | -2.99 ± 0.4
AACGAGCAAUAUUACGGAGU |  | -1.74 ± 0.14
AACGAGCAAUAUUACGGCCU | -1.16 ± 0.2 | -0.95 ± 0.2
AACGAGCAAUAUUACGGCUA | -1.23 ± 0.15 | -0.829 ± 0.18
AACGAGCAAUAUUACGGUAC |  | -1.34 ± 0.22
AACGAGCAAUAUUACGGUCC |  | -1.13 ± 0.31
AACGAGCAAUAUUACGUAAC | -2.83 ± 0.2 | -1.83 ± 0.44
AACGAGCAAUAUUACGUACA | -3.11 ± 0.17 | -2.19 ± 0.14
AACGAGCAAUAUUACGUAUG | -4.21 ± 0.23 | -2.59 ± 0.17
AACGAGCAAUAUUACGUGAC |  | -2.76 ± 0.23
AACGAGCAAUAUUACGUGCC | -3.37 ± 0.27 | -1.85 ± 0.3
AACUAGCAAUAUUACGAACU | -0.149 ± 0.088 | -0.455 ± 0.098

Sequence | self-splicing fitness (ln) (30 °C) | self-splicing fitness (ln) (37 °C)
AACUAGCAAUAUUACGACUA | -0.192 ± 0.2 | -1.24 ± 0.15
AACUAGCAAUAUUACGAGGA | -1.71 ± 0.1 | -1.89 ± 0.11
AACUAGCAAUAUUACGAUCU | -0.146 ± 0.082 | 0.426 ± 0.098
AACUAGCAAUAUUACGAUGG | -2.49 ± 0.17 | -0.739 ± 0.14
AACUAGCAAUAUUACGCAAC | -3.49 ± 0.21 | -2.08 ± 0.18
AACUAGCAAUAUUACGCAGU | -4.36 ± 0.41 | -1.96 ± 0.21
AACUAGCAAUAUUACGCGAA | -2.81 ± 0.16 | -1.05 ± 0.12
AACUAGCAAUAUUACGCGUA | -1.19 ± 0.09 | -0.289 ± 0.083
AACUAGCAAUAUUACGCUAU | -2.88 ± 0.14 | -1.84 ± 0.13
AACUAGCAAUAUUACGCUCC | -1.39 ± 0.15 | -0.732 ± 0.19
AACUAGCAAUAUUACGCUUG | -2.18 ± 0.11 | -1.16 ± 0.12
AACUAGCAAUAUUACGGAGC | -1.86 ± 0.15 | -0.604 ± 0.15
AACUAGCAAUAUUACGGGAU | -1.53 ± 0.079 | -0.855 ± 0.081
AACUAGCAAUAUUACGGGGC | -3.61 ± 0.23 | -3.1 ± 0.35
AACUAGCAAUAUUACGUAAA | -1.87 ± 0.11 | -1.01 ± 0.11
AACUAGCAAUAUUACGUACA | -1.19 ± 0.099 | -0.373 ± 0.13
AACUAGCAAUAUUACGUCUC | -3.37 ± 0.16 | -2.54 ± 0.15
AACUAGCAAUAUUACGUGAC | -2.92 ± 0.12 | -1.38 ± 0.12
AACUAGCAAUAUUACGUUGG | -3.74 ± 0.22 | -3.5 ± 0.22
AAGAAGCAAUAUUACGAAUC | -2.91 ± 0.15 | -2.64 ± 0.26
AAGAAGCAAUAUUACGAAUG | -2.19 ± 0.13 | -1.66 ± 0.14
AAGAAGCAAUAUUACGACCC | -1.01 ± 0.16 | -0.395 ± 0.17
